Measurements: patent publication US20160047821
Numbering of substitutions follows the chain as printed.

How the values were obtained:
[1] = target: T1, GST-RelB deletion mutant Δ1 (amino acids 274-321)
T1 chain: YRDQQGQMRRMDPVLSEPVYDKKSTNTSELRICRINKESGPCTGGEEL

[2] = target: T2, GST-RelB deletion mutant Δ2 (amino acids 316-377)
T2 chain: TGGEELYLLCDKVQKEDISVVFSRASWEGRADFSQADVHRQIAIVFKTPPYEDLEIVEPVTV

[3] = target: T3, GST-RelB deletion mutant Δ3 (amino acids 372-448)
T3 chain: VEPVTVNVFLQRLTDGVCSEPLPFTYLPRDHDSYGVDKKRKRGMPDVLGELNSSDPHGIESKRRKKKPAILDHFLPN

[4] = target: T4, GST-RelB deletion mutant Δ4 (amino acids 441-504)
T4 chain: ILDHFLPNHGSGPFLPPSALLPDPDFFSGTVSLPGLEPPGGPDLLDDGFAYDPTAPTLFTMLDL

[5] = target: T5, GST-RelB deletion mutant Δ5 (amino acids 499-580)
T5 chain: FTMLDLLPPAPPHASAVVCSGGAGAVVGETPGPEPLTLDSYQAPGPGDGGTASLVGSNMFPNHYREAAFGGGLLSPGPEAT

[6] = target: T6, GST-RelB Δ4 point mutant S451A
T6 chain: T4 chain with S11A

[7] = target: T7, GST-RelB Δ4 point mutant S458A
T7 chain: T4 chain with S18A

[8] = target: T8, GST-RelB Δ4 point mutant S468A
T8 chain: T4 chain with S28A

[9] = target: T9, GST-RelB Δ4 point mutant S472A
T9 chain: T4 chain with S32A

B1: IκB kinase (IKK) complex (endogenous, WT MEFs) (protein)
chain 1: MERPPGLRPGAGGPWEMRERLGTGGFGNVSLYQHRELDLKIAIKSCRLELSSKNRERWCHEIQIMKKLDHANVVKACDVPEELNFLINDVPLLAMEYCSGGDLRKLLNKPENCCGLKESQILSLLSDIGSGIRYLHENKIIHRDLKPENIVLQDVGGKTIHKIIDLGYAKDVDQGSLCTSFVGTLQYLAPELFENKPYTATVDYWSFGTMVFECIAGYRPFLHHLQPFTWHEKIKKKDPKCIFACEEMTGEVRFSSHLPQPNSLCSLIVEPMESWLQLMLNWDPQQRGGPIDLTLKQPRCFALMDHILNLKIVHILNMTSAKIISFLLPCDESLHSLQSRIERETGINTGSQELLSETGISLDPRKPASQCVLDGVRGCDSYMVYLFDKSKTVYEGPFASRSLSDCVNYIVQDSKIQLPIIQLRKVWAEAVHYVSGLKEDYSRLFQGQRAAMLSLLRYNANLTKMKNTLISASQQLKAKLEFFRKSIQLDLERYSEQMTYGISSEKMLKAWKEMEEKAIHYSEVGVIGYLEDQIMSLHTEIMELQKSPYGRRQGDLMESLEQRAIDLYKQLKHRPPDHLYSDSTEMVKIIVHTVQSQDRVLKELFGHLSKLLGCKQKIIDLLPKVEVALSNIKEADNTVMFMQGKRQKEIWHLLKIACTQSSARSLVGSSLEGTVTPPVSAWLPPTLADREHPLTCVVTPQDGETLAQMIEENLNCLGHLSTIIREANEDQSSSLMSLDWSWLAE
chain 2: MSWSPSLPTQTCGAWEMKERLGTGGFGNVIRWHNQATGEQIAIKQCRQELSPKNRNRWCLEIQIMRRLNHPNVVAARDVPEGMQNLAPNDLPLLAMEYCQGGDLRRYLNQFENCCGLREGAVLTLLSDIASALRYLHENRIIHRDLKPENIVLQQGEKRLIHKIIDLGYAKELDQGSLCTSFVGTLQYLAPELLEQQKYTVTVDYWSFGTLAFECITGFRPFLPNWQPVQWHSKVRQKSEVDIVVSEDLNGAVKFSSSLPFPNNLNSVLAERLEKWLQLMLMWHPRQRGTDPQYGPNGCFRALDDILNLKLVHVLNMVTGTVHTYPVTEDESLQSLKTRIQENTGILETDQELLQKAGLVLLPDKPATQCISDSKTNEGLTLDMDLVFLLDNSKINYETQITPRPPPESVSCILQEPKRNLSFFQLRKVWGQVWHSIQTLKEDCNRLQQGQRAAMMSLLRNNSCLSKMKNAMASTAQQLKAKLDFFKTSIQIDLEKYKEQTEFGITSDKLLLAWREMEQAVEQCGRENDVKHLVERMMALQTDIVDLQRSPMGRKQGGTLDDLEEQARELYRKLREKPRDQRTEGDSQEMVRLLLQAIQSFEKKVRVIYTQLSKTVVCKQKALELLPKVEEVVSLMNEDERTVVRLQEKRQKELWNLLKIACSKVRGPVSGSPDSMNVSRLSHPGQLMSQPSSACDSLPESDKKSEELVAEAHALCSRLESALQDTVKEQDRSFTTLDWSWLQMEDEERCSLEQACD
chain 3: MNKHPWKNQLSEMVQPSGGPAEDQDMLGEESSLGKPAMLHLPSEQGTPETLQRCLEENQELRDAIRQSNQMLRERCEELLHFQVSQREEKEFLMCKFQEARKLVERLSLEKLDLRSQREQALKELEQLKKCQQQMAEDKASVKAQVTSLLGELQESQSRLEAATKDRQALEGRIRAVSEQVRQLESEREVLQQQHSVQVDQLRMQNQSVEAALRMERQAASEEKRKLAQLQAAYHQLFQDYDSHIKSSKGMQLEDLRQQLQQAEEALVAKQELIDKLKEEAEQHKIVMETVPVLKAQADIYKADFQAERHAREKLVEKKEYLQEQLEQLQREFNKLKVGCHESARIEDMRKRHVETPQPPLLPAPAHHSFHLALSNQRRSPPEEPPDFCCPKCQYQAPDMDTLQIHVMECIE
Question: How did the “IKKγ kinase assays (phosphorylation of the GST-RelB substrate, 32P autoradiography)” value (“IKKγ kinase assays” below) [1] turn out when B1 was run?
Answer: Only mutant Δ4 was efficiently phosphorylated by IKKγ

Question: What about the “IKKγ kinase assays” value [2] of the same protein?
Answer: Only mutant Δ4 was efficiently phosphorylated by IKKγ

Question: What about the “IKKγ kinase assays” value [3] of the same protein?
Answer: Only mutant Δ4 was efficiently phosphorylated by IKKγ

Question: And the “IKKγ kinase assays” value [4]?
Answer: Only mutant Δ4 was efficiently phosphorylated by IKKγ

Question: And the “IKKγ kinase assays” value [5]?
Answer: Only mutant Δ4 was efficiently phosphorylated by IKKγ

Question: And the “in vitro kinase assays (phosphorylation of GST-RelB Δ4 point mutants)” value [6]?
Answer: only a point mutation at serine 472 abolished phosphorylation of the Δ4 RelB deletion mutant

Question: And the “in vitro kinase assays (phosphorylation of GST-RelB Δ4 point mutants)” value [7]?
Answer: only a point mutation at serine 472 abolished phosphorylation of the Δ4 RelB deletion mutant

Question: What about the “in vitro kinase assays (phosphorylation of GST-RelB Δ4 point mutants)” value [8] of the same protein?
Answer: only a point mutation at serine 472 abolished phosphorylation of the Δ4 RelB deletion mutant

Question: And the “in vitro kinase assays (phosphorylation of GST-RelB Δ4 point mutants)” value [9]?
Answer: only a point mutation at serine 472 abolished phosphorylation of the Δ4 RelB deletion mutant
